From US20190010233A1

Columns and labels:
[1] = biological target: recombinant human PD-1^ECD-hFc protein (human) (UniProt Q15116); assay: ELISA, coated PD-1-hFc, 0.008 µg/mL
[2] = biological target: recombinant human PD-1^ECD-hFc protein (human) (UniProt Q15116); assay: ELISA, coated PD-1-hFc, 0.00001 µg/mL
[3] = biological target: recombinant human PD-1^ECD-hFc protein (human) (UniProt Q15116); assay: ELISA, coated PD-1-hFc, 0.0016 µg/mL
[4] = biological target: recombinant human PD-1^ECD-hFc protein (human) (UniProt Q15116); assay: ELISA, coated PD-1-hFc, 0.0003 µg/mL
[5] = biological target: recombinant human PD-1^ECD-hFc protein (human) (UniProt Q15116); assay: ELISA, coated PD-1-hFc, 0.2 µg/mL
[6] = biological target: recombinant human PD-1^ECD-hFc protein (human) (UniProt Q15116); assay: ELISA, coated PD-1-hFc, 0.0001 µg/mL
[7] = biological target: recombinant human PD-1^ECD-hFc protein (human) (UniProt Q15116); assay: ELISA, coated PD-1-hFc, 0.04 µg/mL
[8] = biological target: recombinant human PD-1^ECD-hFc protein (human) (UniProt Q15116); assay: ELISA, coated PD-1-hFc, 1 µg/mL

Chain of recombinant human PD-1^ECD-hFc protein (human) (Q15116 25-167): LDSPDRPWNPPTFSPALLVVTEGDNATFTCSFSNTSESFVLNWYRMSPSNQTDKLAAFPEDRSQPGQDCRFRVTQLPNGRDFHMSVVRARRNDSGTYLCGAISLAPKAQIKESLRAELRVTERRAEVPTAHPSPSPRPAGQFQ

control protein (biotinylated non-PD-L1^ECD-hFc)
OD450 nm [1]: 0.135 | OD450 nm [2]: 0.09 | OD450 nm [3]: 0.19 | OD450 nm [4]: 0.255 | OD450 nm [5]: 0.1 | OD450 nm [6]: 0.12 | OD450 nm [7]: 0.49 | OD450 nm [8]: 0.51
